Reference: publication PMC6661058

Target: T1, CepR (His-tagged response regulator) (Streptomyces clavuligerus F613-1) (UniProt E2PWN2)
T1 sequence: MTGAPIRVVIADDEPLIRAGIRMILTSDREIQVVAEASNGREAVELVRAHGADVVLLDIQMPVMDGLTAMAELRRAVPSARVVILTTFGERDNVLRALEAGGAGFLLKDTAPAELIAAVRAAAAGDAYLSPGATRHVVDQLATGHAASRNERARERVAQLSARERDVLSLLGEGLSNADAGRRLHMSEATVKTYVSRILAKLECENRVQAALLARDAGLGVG
Experiment: EMSA
Conditions: EMSA with 0.5-3.0 ug His-CepR and 1.0 ug poly(dI-dC); buffer, salt, pH and temperature not given (as in Fu et al. 2019; Zhang et al. 2015)

“ATGGTCGTCCGATCGCCGCACGATCACTGATCAAGCCCTGCCCCACCCCGGCGCAAAAATTATCCGCCGGGTCATCACGCGTCATCACCACGTAATTCGGGACGGGAATACCCTGCCGCATTCCCGCCGGGGCGGCCCGGTGGGGCGGCTCCCCTCCCGCAGGCGCGGCGGTGCCCGTCGCACACTCAAGGAAGAGGGCAATGAACGA (double strand) [cefD-cmcI intergenic P1]” was tested, and the binding was “no binding”.
